According to patent US20120322135A1:

B1: LC23F1 (protein)
light: DIVMTQTPLSSPVTLGQPASISCRSSQSLVHSDGNTYLSWLQQRPGQPPRLLIYKISNRFSGVPDRFSGSGAGTDFTLKISRVEAEDVGIYYCMQGLQTPLTFGGGTKVDLKRTVAAPSVFIFPPSDEQLKSGTASVVCLLNNFYPREAKVQWKVDNALQSGNSQESVTEQDSKDSTYSLSSTLTLSKADYEKHKVYACEVTHQGLSSPVTKSFNRGEC
B2: LC22F6 (protein)
light: DIVMTQSPLSLPVTPGEPASISCRSSQSLLHSNGFNYLDWYLQKPGQSPQLLIYLGSTRASGVPDRFSGSGSGTDFTLRISRVEAEDVGVYFCMQAVQTPFTFGPGTRLDIKRTVAAPSVFIFPPSDEQLKSGTASVVCLLNNFYPREAKVQWKVDNALQSGNSQESVTEQDSKDSTYSLSSTLTLSKADYEKHKVYACEVTHQGLSSPVTKSFNRGEC

How the values were obtained:
[1] = biological target: rabies virus antibody (antigen), second of the two types used in the screening ELISA (AS 2) (rabies virus); assay: ELISA, 150 µl culture supernatant
[2] = biological target: rabies virus antibody (antigen), first of the two types used in the screening ELISA (AS 1) (rabies virus); assay: ELISA, 150 µl culture supernatant
[3] = biological target: rabies virus antibody (antigen), second of the two types used in the screening ELISA (AS 2) (rabies virus); assay: ELISA, 10 ml culture cell breakage liquid
[4] = biological target: rabies virus antibody (antigen), first of the two types used in the screening ELISA (AS 1) (rabies virus); assay: ELISA, 10 ml culture cell breakage liquid

| Binder | AS 2 (Antigen Specificity, ELISA signal) [1] | AS 1 (Antigen Specificity, ELISA signal) [2] | AS 2 (Antigen Specificity, ELISA signal) [3] | AS 1 (Antigen Specificity, ELISA signal) [4] |
| --- | --- | --- | --- | --- |
| B1 | 0.219 | 0.249 | 2.95 | 0.821 |
| B2 | 0.175 | 0.275 | 2.77 | 0.5 |
